Test results reported in patent publication US20240254227A1 (Alector, published 2024).
Where a chain is given by its changes, count along the chain named.

T1: recombinant human CD300LB overexpressed on Jurkat cells (human, UniProt A8K4G0 18-201)
T1 construct: also called huCD300LB; huCD300LB-expressing Jurkat cells
T1 sequence: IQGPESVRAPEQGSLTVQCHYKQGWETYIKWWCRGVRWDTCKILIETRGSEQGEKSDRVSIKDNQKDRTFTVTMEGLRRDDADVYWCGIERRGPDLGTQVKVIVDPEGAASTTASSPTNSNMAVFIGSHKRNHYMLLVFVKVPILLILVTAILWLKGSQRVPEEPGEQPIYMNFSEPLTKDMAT

T2: murine CD300LB stably expressed on Jurkat cells (mouse, UniProt Q3U497 18-209)
T2 construct: also called muCD300LB; mouse CD300LB
T2 sequence: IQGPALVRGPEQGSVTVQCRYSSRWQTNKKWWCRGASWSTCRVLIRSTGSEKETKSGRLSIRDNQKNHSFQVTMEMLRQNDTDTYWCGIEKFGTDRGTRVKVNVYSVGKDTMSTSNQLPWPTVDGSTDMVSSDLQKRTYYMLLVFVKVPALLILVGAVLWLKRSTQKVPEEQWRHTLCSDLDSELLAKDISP

T3: human CD300LB transiently expressed on HEK293 cells (human, UniProt A8K4G0 18-201)
T3 construct: CD300LB expression constructs'; also called huCD300LB HEK293
T3 sequence: T1 sequence

T4: human CD300LB on primary human monocytes (human, UniProt A8K4G0 18-201)
T4 construct: Endogenous protein on primary cells; that the target is CD300LB is inferred from the antibodies being anti-CD300LB antibodies; also called Monocyte donor 1281; Monocyte donor 1282
T4 sequence: T1 sequence

T5: human CD300LB on primary human macrophages (human, UniProt A8K4G0 18-201)
T5 sequence: T1 sequence

T6: huCD300F constitutively expressed on 293 Freestyle (Freestyle HEK) cells (human, UniProt Q8TDQ1 20-290)
T6 construct: also called huCD300LF; Human CD300F
T6 sequence: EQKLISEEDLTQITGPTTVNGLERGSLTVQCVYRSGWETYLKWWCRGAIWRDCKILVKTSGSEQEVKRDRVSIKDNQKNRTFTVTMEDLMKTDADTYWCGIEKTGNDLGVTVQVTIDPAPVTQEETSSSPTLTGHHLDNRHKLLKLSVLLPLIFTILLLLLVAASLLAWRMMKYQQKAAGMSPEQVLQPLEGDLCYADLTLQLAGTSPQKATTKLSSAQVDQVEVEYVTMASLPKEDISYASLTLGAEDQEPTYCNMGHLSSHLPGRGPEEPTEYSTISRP

B1: anti-CD300LB antibody CD-04 (antibody, V domains shown)
VH: QVQLQQSGAELVRPGASVTLSCRASGYTFTDFEMHWVKQTPLHGLEWIGAIAPETGGTAYNQKFKGKAILTADKSSSTAYVELRSLTSEDSAVYFCTRLGGMDYWGQGTSVTVSS
VL: DVVMTQTPLSLPVSLGDQASISCRSSQTLVHNNGNTYLYWYLQKPGQSPKLLIYQVSNRFFGVPDRFSGSGSGTDFTLKISRVEAEDLGLYFCSQSTHVPWTFGGGTKLEIK
B2: anti-CD300LB antibody CD-09 (antibody, V domains shown)
VH: QVQLVQSGAEVKKPGASVKVSCKASGYTFTTYAVHWVRQAPGQGLEWMGIINPNSGGTNYAQKFQGRVTMTRDTSTSTVYMELSSLRSEDTAVYYCARDIVPMNNFYNYYYGMDVWGQGTTVTVSS
VL: DIQMTQSPSSLSASVGDRVTITCRASQSISSYLNWYQQKPGKAPKLLIYATSTLQSGVPSRFSGSGSGTDFTLTISSLQPEDFATYYCQQSYRIPYTFGQGTKVEIK
B3: anti-CD300LB antibody CD-08 (antibody, V domains shown)
VH: EVQLLESGGGLVQPGGSLRLSCAASGFTFSNAWMSWVRQAPGKGLEWVSVISGSGGRTYYADSVKGRFTISRDNSKNTLYLQMNSLRAEDTAVYYCARDGTTVAPKGMDVWGQGTTVTVSS
VL: B2 VL with R24Q, S28D, S30N, S31N, L33V, T51A, T53N, R93S, I94P, V104L

Legend:
[1] = biological target: T1, recombinant human CD300LB overexpressed …; experiment: flow cytometry on Jurkat cells overexpressing huCD300LB, apparent KD (Drake & Klakamp fit)
Description: Purified anti-CD300LB antibodies of the present disclosure were evaluated for their binding affinity to either Jurkat cells overexpressing recombinant huCD300LB or BaF/3 cells overexpressing recombinant muCD300LB. Binding of anti-CD300LB antibodies to the cells was determined as follows. Cells were harvested, washed, and labeled with propidium iodide for viability discrimination. After washing the cells with PBS, 1×10⁵ cells were aliquoted per well in 96-well U-bottom plates and incubated with 100 μL of purified anti-CD300LB antibody at various concentrations in FACS buffer (PBS+2% FBS). After this primary incubation, the supernatant was removed via centrifugation, the cells washed twice with 150 μL of ice-cold FACS buffer, and then incubated with the appropriate secondary antibody on ice for 30 minutes. Following the secondary antibody incubation, the cells were again washed twice with ice-cold FACS buffer and resuspended in a final volume of 200 L FACS buffer. Flow cytometry analysis was then performed using the FACSCanto system (BD Biosciences).
To determine affinity, antibodies at increasing concentrations were used to stain Jurkat cells overexpressing huCD300LB and geometric MFI values measured by the flow cytometer were analyzed on Prism (Graphpad) software.

[2] = biological target: T2, murine CD300LB stably expressed on …; experiment: flow cytometry, stable Jurkat cells, supernatant or 10 ug/mL, isotype subtracted
Description: (§1) Purified anti-CD300LB antibodies of the present disclosure were also evaluated for species cross-reactivity to mouse and human CD300LB stably expressed in Jurkat cells (generation of which is described above). Cells were counted and labeled with 200 nM CFSE, 500 nM VioBlue, or a combination of the two to discriminate between human CD300LB, Parental cells and mouse CD300LB. Cells were washed thoroughly with PBS containing 2% fetal bovine serum then resuspended at a total of 240,000 cells per well. Hybridoma supernatants (100 L) or purified antibodies at 10 μg/mL were added and incubated for one hour before the cells were washed again and stained with an APC-labeled anti-human or anti-mouse secondary. Cells were then analyzed using a BD FACSCanto II. Antibodies were analyzed for binding to mouse or human CD300LB by FlowJo software by gating on live cells, then the APC gMFI calculated for each labeled population by subtraction of the gMFI of the appropriate isotype control.

[3] = biological target: T1, recombinant human CD300LB overexpressed …; experiment: as above
Description: as §1

[4] = biological target: T7, huCD300LB-DAP12 fusion constitutively expressed on 293 Freestyle (Freestyle HEK) cells (human); experiment: flow cytometry, geometric mean (APC-A), FreeStyle HEK cells expressing huCD300LB
T7 construct: also called Human CD300LB-DAP12 chimera
Description: (§2) Other members of the human CD300 family share sequence homology with human CD300LB. Thus, counter screens against binding of the anti-CD300LB antibodies to huCD300A, huCD300C, huCD300LD, huCD300E, huCD300LF, and huCD300G by stable overexpression in Freestyle HEK cells (generation of which is described above) were performed as follows. Cells were counted and labeled with 200 nM CFSE, 500 nM VioBlue, or a combination of the two to discriminate between CD300LB, Parental cells, and the other CD300 family members. Cells were washed thoroughly with PBS containing 2% fetal bovine serum then resuspended at a total of 240,000 cells per well. Hybridoma supernatants (100 L) or purified antibodies at various concentrations were added and incubated for one hour before the cells were washed twice again and stained with an APC-labeled anti-human or anti-mouse secondary antibody. Cells were then analyzed using a BD FACSCanto II. Anti-CD300LB antibodies were analyzed for specific binding to human CD300LB by FlowJo software by gating on live cells, then the APC geometric mean fluorescence intensity (gMFI) calculated for each labeled population. The results are shown in […]

[5] = biological target: T2, murine CD300LB stably expressed on …; experiment: flow cytometry, stable Jurkat cells
[6] = biological target: T7, huCD300LB-DAP12 fusion constitutively …; experiment: flow cytometry, stable Freestyle HEK cells
Description: as §2
(§3) Freestyle HEK cells were transfected with huCD300A, huCD300C, huCD300D, huCD300E, and huCD300G separately. Then, five stable cell lines from these transfections were pooled; the combined cells are herein known as CD300A/C/D/E/G. Freestyle HEK cells were also transfected with huCD300LB and huCD300F. All transfected cells were then tested for binding of anti-CD300LB antibodies of the present disclosure.
Target sequence in this assay (chain, as listed by the source limits assumed): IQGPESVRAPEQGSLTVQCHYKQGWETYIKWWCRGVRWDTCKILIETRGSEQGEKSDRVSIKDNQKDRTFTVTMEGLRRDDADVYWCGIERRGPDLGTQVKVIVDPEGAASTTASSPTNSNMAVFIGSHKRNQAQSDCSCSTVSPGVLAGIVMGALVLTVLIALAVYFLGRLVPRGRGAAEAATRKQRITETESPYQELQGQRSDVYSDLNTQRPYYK

[7] = biological target: T3, human CD300LB transiently expressed on …; experiment: flow cytometry, transfected HEK293, 10 ug/mL, isotype subtracted
Description: In addition, supernatants or purified antibodies were tested for species crossreactivity by comparing the binding of human, mouse, and cynomolgous monkey CD300LB expressing cell lines. HEK293 were transfected with […] of human, mouse, and cyno CD300LB expression constructs using the Mirus system in 10 cm tissue culture dishes. Cells were then incubated for 24 hours in complete medium. Cells were harvested by incubation in TrypLE Express, then washed with PBS and labeled with 200 nM CFSE, 500 nM VioBlue, or a combination of the two to discriminate between human, mouse, and cyno CD300LB expressing cells. Cells were washed thoroughly with PBS containing 2% fetal bovine serum then resuspended at a total of 240,000 cells per well. Purified antibodies at 10 μg/mL were added and incubated for one hour before the cells were washed again and stained with an APC-labeled anti-human or anti-mouse secondary. Cells were then analyzed using a BD FACSCanto II. Antibodies were analyzed for specific binding to human, mouse, or cyno CD300LB by FlowJo software by gating on live cells, then the APC gMFI calculated for each labeled population minus the gMFI of the isotype control.

[8] = biological target: T4, human CD300LB on primary human monocytes; experiment: flow cytometry, primary human monocytes donor 1284, 10 ug/mL antibody, isotype control subtracted
Description: (§4) Human monocytes from various donors were isolated from whole blood using RosetteSep Human Monocyte Enrichment Cocktail (Stemcell technologies) and Ficoll centrifugation per manufacturer protocols. After lysing red blood cells with ACK lysing buffer, monocytes were resuspended in complete media (RPMI, 10% FBS, Pen/Strep, L-glutamine, HEPES, non-essential amino acid, Sodium pyruvate). To obtain macrophages from these isolated monocytes, 100 ng/ml human M-CSF and 8% v/v human serum were added to the cells for 5-7 days. Cells were counted on the day of the experiment and plated at 100,000 cells per well in a round-bottom 96 well plate. Cells were incubated with TruStain Fc block and 10 μg/mL antibody for 1 hour on ice before washing with 250 μL ice cold PBS twice. Cells were then incubated with the appropriate APC-conjugated secondary antibodies for 20 minutes in the dark on ice. Finally, cells were washed twice with ice cold FACS buffer and then resuspended in 100 μL FACS buffer containing 1% propidium iodide. Samples were immediately analyzed using a BD FACSCanto flow cytometer. The gMFI was calculated using FlowJo software minus the gMFI of the appropriate isotype control.

[9] = biological target: T5, human CD300LB on primary human …; experiment: flow cytometry, primary human macrophages donor 1277, 10 ug/mL antibody, isotype control subtracted
Description: as §4

[10] = biological target: T5, human CD300LB on primary human …; experiment: flow cytometry, primary human macrophages donor 1278, 10 ug/mL antibody, isotype control subtracted
Description: as §4

[11] = biological target: T5, human CD300LB on primary human …; experiment: flow cytometry, primary human macrophages donor 1275, 10 ug/mL antibody, isotype control subtracted
Description: as §4

[12] = biological target: T6, huCD300F constitutively expressed on …; experiment: flow cytometry, stable Freestyle HEK cells
Description: as §2, §3

[13] = biological target: T4, human CD300LB on primary human monocytes; experiment: flow cytometry, primary human monocytes donor 1282, 10 ug/mL antibody, isotype control subtracted
Description: as §4

[14] = biological target: T4, human CD300LB on primary human monocytes; experiment: flow cytometry, primary human monocytes donor 1283, 10 ug/mL antibody, isotype control subtracted
Description: as §4

[15] = biological target: T4, human CD300LB on primary human monocytes; experiment: flow cytometry, primary human monocytes donor 1281, 10 ug/mL antibody, isotype control subtracted
Description: as §4

Row | Binder | Kd [1] | gMFI [2] | gMFI [3] | binding result [4] | binding result [5] | gMFI [6] | gMFI [7] | gMFI [8] | gMFI [9] | gMFI [10] | gMFI [11] | binding result [12] | gMFI [12] | gMFI [13] | gMFI [14] | gMFI [15]
1 | B1 | 32 nM | 18 gMFI | 193 gMFI | no binding | no binding (tested: 10 ug/mL) | 190 gMFI | 207 gMFI | – | – | – | – | – | – | – | – | –
2 | B2 | 109 nM | – | – | – | – | 37900 gMFI | 445 gMFI | 1040 gMFI | 15700 gMFI | 13300 gMFI | 19700 gMFI | no binding | 28 gMFI | 3070 gMFI | 2580 gMFI | 1370 gMFI
3 | B3 | 45 nM | – | – | – | – | 56800 gMFI | 774 gMFI | 1400 gMFI | 2800 gMFI | 135000 gMFI | 3580 gMFI | no binding | 212 gMFI | 4470 gMFI | 1920 gMFI | 2970 gMFI
